Data from patent publication US20160310424A1 (Stanford University, published 2016).

What was measured:
[1] = target: T1, low-density lipoprotein receptor-related protein 6 (LRP6) (UniProt O75581 20-1370, limits assumed); assay: binding affinity stated in the FIG. 17 legend on the pull-down assays; method behind the value not described
T1 sequence (looked up): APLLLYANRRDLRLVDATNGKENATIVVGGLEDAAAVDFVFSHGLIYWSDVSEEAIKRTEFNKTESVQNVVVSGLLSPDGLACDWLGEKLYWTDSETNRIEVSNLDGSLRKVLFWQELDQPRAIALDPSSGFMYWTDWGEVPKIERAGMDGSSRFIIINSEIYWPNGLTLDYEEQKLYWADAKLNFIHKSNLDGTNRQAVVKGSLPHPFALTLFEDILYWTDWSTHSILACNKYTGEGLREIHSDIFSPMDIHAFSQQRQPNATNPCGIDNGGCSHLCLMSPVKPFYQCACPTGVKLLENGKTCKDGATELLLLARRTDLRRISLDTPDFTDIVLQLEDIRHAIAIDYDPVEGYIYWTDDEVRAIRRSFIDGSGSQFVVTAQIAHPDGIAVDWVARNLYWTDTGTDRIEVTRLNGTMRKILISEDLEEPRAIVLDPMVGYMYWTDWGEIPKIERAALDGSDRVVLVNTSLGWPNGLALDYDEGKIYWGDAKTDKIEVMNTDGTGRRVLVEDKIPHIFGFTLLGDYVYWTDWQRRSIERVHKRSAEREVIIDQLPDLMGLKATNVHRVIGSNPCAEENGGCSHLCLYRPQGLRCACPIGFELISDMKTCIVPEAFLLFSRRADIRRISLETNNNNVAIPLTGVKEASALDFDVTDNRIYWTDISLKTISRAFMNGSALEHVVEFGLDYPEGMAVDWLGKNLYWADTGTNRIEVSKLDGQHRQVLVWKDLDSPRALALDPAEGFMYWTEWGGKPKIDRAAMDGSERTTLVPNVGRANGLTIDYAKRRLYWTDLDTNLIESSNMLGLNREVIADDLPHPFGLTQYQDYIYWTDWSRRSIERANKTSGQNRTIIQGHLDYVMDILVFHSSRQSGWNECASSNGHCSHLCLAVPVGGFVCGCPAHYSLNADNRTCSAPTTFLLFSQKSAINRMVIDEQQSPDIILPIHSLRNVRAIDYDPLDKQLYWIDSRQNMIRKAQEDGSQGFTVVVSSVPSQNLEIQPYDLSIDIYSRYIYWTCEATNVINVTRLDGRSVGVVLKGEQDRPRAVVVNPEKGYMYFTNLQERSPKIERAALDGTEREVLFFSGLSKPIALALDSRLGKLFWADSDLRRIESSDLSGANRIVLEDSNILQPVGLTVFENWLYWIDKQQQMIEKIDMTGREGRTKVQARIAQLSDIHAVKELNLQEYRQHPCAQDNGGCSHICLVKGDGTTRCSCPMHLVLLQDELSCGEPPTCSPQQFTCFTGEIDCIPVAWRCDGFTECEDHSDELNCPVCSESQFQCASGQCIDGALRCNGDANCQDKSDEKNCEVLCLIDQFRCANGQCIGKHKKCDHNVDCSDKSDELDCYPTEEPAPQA

Frizzled = target: T2, Frizzled; assay: binding affinity stated with the liposome/Frizzled pull-down competition assay; method behind the value not described
T2 construct: also called Fz; Frizzled, the WNT receptor

B1: Human Wnt3a polypeptide (ligand)
chain: SYPIWWSLAVGPQYSSLGSQPILCASIPGLVPKQLRFCRNYVEIMPSVAEGIKIGIQECQHQFRGRRWNCTTVHDSLAIFGPVLDKATRESAFVHAIASAGVAFAVTRSCAEGTAAICGCSSRHQGSPGKGWKWGGCSEDIEFGGMVSREFADARENRPDARSAMNRHNNEAGRQAIASHMHLKCKCHGLSGSCEVKTCWWSQPDFRAIGDFLKDKYDSASEMVVEKHRESRGWVETLRPRYTYFKVPTERDLVYYEASPNFCEPNPETGSFGTRDRTCNVSSHGIDGCDLLCCGRGHNARAERRREKCRCVFHWCCYVSCQECTRVYDVHTCK
modifications: palmitoylated at S209 (paragraph 228 instead reports palmitoylation at S211 and probable myristoleylation at S139 and S181); glycosylated
notes: Secreted from CHO cells and purified on blue Sepharose; In the pull-down assays it was reconstituted into DMPC:cholesterol liposomes (L-Wnt3a); also called L-Wnt3a; L-WNT3A
Kd [1]: ~9 nM
Kd (Frizzled): ~3.6 nM
